# Measured values as given in the DeepSol protein solubility set.
# Test: soluble on expression in E. coli; label from the status in PepcDB or PDB records
row,Sequence,soluble on expression in E. coli
1,MRQKTIREISVAWKEYKQPYVKQSTMAAYVLILENHILPNFGESDTLHEQAVQDFVLRKIENGLSVKSVKDILIVLKMVMKFGVKNEWMDYQEWDIKYPSSSTTKELEVLSVANHKKILNHIQNHFSFTGLGIYISLCTGLRIGEVCALKWSDINVSEGTITVNRTIERIYIIDGTKKHTELVINTPKTQNSCREIPMTKELLAMVKPLKKVVNEDFYVLTNDEYPTEPRTYRNYYGKLM,not soluble
2,MRRVTEAAIPDNDGDEQPPVIPRYDPTSNFDAQRAQQQHPQSRPVYSTPAQMIRTTQPGGVKHNVILMKASDGTQKMVLKPGQFPPGTVISTGQRVVPYRQPTAVQQRQLYTATPGTRVVRIPNANGGAPRQQDHQVMRRVVQASGPRAMEYMDDQGTPPPGQQVRYVLQGGNSGTPNVNPPKVSSRGGPRGGLTMQMVQQQQQHNPVLDVMFSQVCRWDRQYGWSKTHVKRARQKNDSDKMHLRKFRMNQRELLITDHMERLKKEINKRRTRMENEAEQQCGLLTPWRKARARPHRAAKPKAEVKKEVINPADITLGGDTYDYVKEQKPTESIATNVSRRRRTSANLSKSEDDRDKPESQSTAPKSKERRTSEPPASHVAFHTPGSATPHDINLSIEHCTCQKIFDASKLYIQCELCARWYHGDCVGVAEQTILGLEHWSCEECIEEQERVKDQPALYCVCQKPYDDTKFYVGCDSCQGWFHPECVGTTRAEAEQAADYNCPACTREAEGYESEASDVSGSSRVSVQLTRADYTHVFELLELLLEHRMSTPFRNPVDLNEFPDYEKFIKKPMDLSTITKKVERTEYLYLSQFVNDVNQMFENAKTYNPKGNAVFKCAETMQEVFDKKLIDVREQMTARQQMLLLATAQQQDPMSSIRKRVQSESQRTVDSLDIDSDQLLPLDANLMRLYDF,not soluble
3,MRSELCCCRAVKRAAPEESIEEDDSYEDSDLEEGGSSYDEGTVDSESSAEDQEDKDVPVSEKKKRKLPSDVTEGKTVFIRNLSFDSEEEALGEVLQQFGDLKYVRVVLHPDTEHSKGCAFAQFMTQEAAQKCLAAASLEAEGGGLKLDGRQLKVDLAVTRDEAAKLQTKKVKKPTGTRNLYLAREGLIRAGTKAAEGVSAADMAKRERFELLKHQELKNQNIFVSQTRLCLHNLPKAVDDKQLRKLLLEATRGEKGVRIKECRVMRDLKGVHGKMKGQSLGYAFAEFQKHEHALRALRHFNNNPEIFGSQKRPIVEFSLEDRRKLKVKELRIQRSLQKMESKPVTSKPQKEQKEVGKDKQQKAVQSATQDQSKAPGEQKGKAGSTSWTGFQTKAEVEQVELPDGKKRRKVLALPSHRGPKIRLRDKGKVKSLPSRKPKPQMGQRKQKKQQLASSVQAPKRKAKENKAEARFNQLVEQYKQKLLGPSKGAPLMKRSKWFDS,soluble
4,MRSFIIFSTLLVILVQCGYPVAENSYPTTPSYPTPPPSYPTPKKYPVAPTYPSTPSYSAPPAQSAYSSSDNQEDTESESVTGAASTSEYRKRAKARTAHNRQFQRRALQPIKRFQQKKQ,not soluble
5,MRSFIISSALLVILVQCGYPVAENSYPTTPSYPTPPPSYPTPKKYPVAPTYPSPPAYAQKPSYSAPPPPAPSVYSSSSFSDNEVASDSEYTTASPNSEYRKRAKARTAHNRKFQRRALTPIRRFQQKKQ,not soluble
6,MRVAIFTDTFTPQVNGVAKTLERLTRYFQKENIAYSVFAPQHTAEDNFVANVNKMRSIPLTILYPECRFSFPTPRIKRELLSFKPDIIHIATPFNMGLCGLYYAKKLNIPVVGSYHTDFDAYLRYYKIEFLSNMLWNYLKWFHSHMQKNFVPSPETLHQLKHKGFQALSIWGRGVDCNLFHPAYNTDLFRKKYNITAKYVLSYIGRIAPEKDIDTLQNLIVKSTHTRNDIHWLIAGDGPLATNLRETVPQTNVTFTGYLQGGDLAEAYACSNLMVFPSATETFGNVVLESLACGTPVIGANSGGVKNIITDGKTGVLCPPKNEDAFLSSIYFLLQNEEKLKQMGIAALSYAKSKSWDEIFRGLLNEYEEVLQHNASELLALEHHHHHH,not soluble
